Reference: the DeepSol protein solubility set

Assay: soluble on expression in E. coli; label from the status in PepcDB or PDB records

Row | Sequence | soluble on expression in E. coli
1 | MGHHHHHHSHMDLSYALETVLNKQFPSSPQDVLGELQFAFVCFLLGNVYEAFEHWKRLLNLLCRSEAAMMKHHTLYINLISILYHQLGEIPADFFVDIVSQDNFLTSTLQVFFSSACSIAVDATLRKKAEKFQAHLTKKFRWDFAAEPEDCAPVVVELPEGIEMG | not soluble
2 | MGHHHHHHSHMEDLLDLDEELRYSLATSRAKMGRRAQQESAQAENHLNGKNSSLTLTGETSSAKLPRCRQGGWAGDSVKASNGTQTGKQQLDLNACYHKTHHRNLGLASLEEADIPIIPDLEEVQEEDFVLQVAAPPSIQIKRVMTYRDLDNDLMKYSAIQTLDGEIDLKLLTKVLAPEHEVREDDVGWDWDHLFTEVSSEVLTEWDPLQTEKEDPAGQARHT | soluble
3 | MGHHHHHHSHMEEKFEDRSPAAECLSEKETEELMAWMRNVLGSRVTNVKVTLRLDTHPAMVTVLEMGAARHFLRMQQLAKTQEERAQLLQPTLEINPRHALIKKLNQLRASEPGLAQLLVDQIYENAMIAAGLVDDPRAMVGRLNELLVKALERH | soluble
4 | MGHHHHHHSHMEKSAPSIILNHWCVTWQGHHFLCRNLSNIKILNRRNGYTTLDLPLTLGDLTQYRLAHGLSENLMALSPYSWTIPFLVSSSETPGIELLPKVINDFGTPLSLAIKTNLPSIPAHQLLFYIIFLRPSPLTSMSCYARPLSLASTPSTNGLCQSVSVLDNKPGLLITTPLHRDPASGKYTSNVQSPTTFNLFRVLYIKLSGEEGMVSQKVKHLTIDKDSLQEGFLQLCLNMCGVSYETLQCEILLELVQGPTNFIFPAAFPPPVSLPHRNCIELTCDTERCLKPGDVMKLKHRLLYELGQRGDTPQNAFLIVGAHSPETVWISPSLWLPGQPLYINIINLSHKPLLLSRHSILALAIPISYTRAPASAHEATDTTICYSGNSRVLTCGAAHVLEAHFKHPPITSRAITDGGESPMEWQTL | not soluble
5 | MGHHHHHHSHMEMASADSDEDPRHKVGKTPHLTLPADLQTLHLNRPTLSPESKLEWNNDIPEVNHLNSEHWRKTEKWTGHEETNHLETDFSGDGMTELELGPSPRLQPIRRHPKELPQYGGPGKDIFEDQLYLPVHSDGISVHQMFTMATAEHRSNSSIAGKMLTKVEKNHEKEKSQHLEGSASSSLSSD | not soluble
6 | MGHHHHHHSHMESLVVGDIAELRPNQGTLSLFTNEAGGILDDLIVTNTSEGHLYVVSNAGCWEKDLALMQDKVRELQNQGRDVGLEVLDNALLALQGPTAAQVLQAGVADDLRKLPFMTSAVMEVFGVSGCRVTRCGYTGEDGVEISVPVAGAVHLATAILKNPEVKLAGLAARDSLRLEAGLCLYGNDIDEHTTPVEGSLSWTLGKRRRAAMDFPGAKVIVPQLKGRVQRRRVGLMCEGAPMRAHSPILNMEGTKIGTVTSGCPSPSLKKNVAMGYVPCEYSRPGTMLLVELPSGPCF | not soluble
7 | MGHHHHHHSHMFTMLCINGTTPRPLPVPSPFGCMIFFFFKNPWKQCLLQGWLGARPIHLLGYLPLSLLWCPFPLPCARCSVVYISSPRHGAHAPRDMILSLVLAHGALYKELGGRGRKWEPS | not soluble
8 | MGHHHHHHSHMFVYLNPNPKNTLRIDAEALTETRRLAARAWDLKYQMTKQGMHQRMLRAELDNLEILERGHSAALTTNLSLLANVLLDQPAPPDPTQGEEKGLPPSSRVESRTEGVYTVTVYPGDPAFEIQDSLPQKIWPMLYLHQQRWLPSYGPWHIRFTSSAMQLRNFPRSLRGQANFQNSMSLKLITALTDVISRISLDFYSDLRHLSDTMSALCLIAAYYSEKNQTPLPTNLPELLGNITAKVTLLVRDLKRAAANKGFNFNRNSSSLLPAQGGLYSNDFFQEHALYSLFRTAGMLASSSSPEYPRADSVLAITAAVFGDNIPPFAAYQWNLRSGLKALESLILLFLLLDVNVPATSNKRLHLEALLGESYSKGSRPPARRTGPLDAGGSVFSFLMENYLVPTLLHRPTTNMSALFPGLYLLQLEFSSGASTPHAIHLTDVKFRDIFNILVQSNVFQDSQELIRAKQSLRVSCETGSGNLLESLSPGTTMRDIIRKEFMAQDVYDYVYFCVLGALPVTVAVV | not soluble
9 | MGHHHHHHSHMGITTNLISEVSKFYYALKYHAKFMSLGELGCYASHYSLWEKCIELNEAICILEDDITLKEDFKEGLDFLEKHIQELGYIRLMHLLYDASVKSEPLSHKNHEIQERVGIIKAYSEGVGTQGYVITPKIAKVFLKCSRKWVVPVDTIMDATFIHGVKNLVLQPFVIADDEQISTIARKEEPYSPKIALMRELHFKYLKYWQFV | not soluble
10 | MGHHHHHHSHMKQWKEKKKKKKPIQEPEVPQIDVPNLKPIFGIPLADAVERTMMYDGIRLPAVFRECIDYVEKYGMKCEGIYRVSGIKSKVDELKAAYDREESTNLEDYEPNTVASLLKQYLRDLPENLLTKELMPRFEEACGRTTETEKVQEFQRLLKELPECNYLLISWLIVHMDHVIAKELETKMNIQNISIVLSPTVQISNRVLYVFFTHVQELFGNVVLKQVMKPLRWSNMATMPTLPETQAGIKEE | soluble
11 | MGHHHHHHSHMKSREGSVHPQVEIANLLLIQSSLANLPPGPCWFCLASPEVEKHLVVNIGTHCYLALAKGGLSDDHVLILPIGHYQSVVELSAEVVEEVEKYKATLRRFFKSRGKWCVVFERNYKSHHLQLQVIPVPISCSTTDDIKDAFITQAQEQQIELLEIPEHSDIKQIAQPGAAYFYVELDTGEKLFHRIKKNFPLQFGREVLASEAILNVPDKSDWRQCQISKEDEETLARRFRKDFEPYDFTLDD | not soluble
12 | MGHHHHHHSHMKTRQAFYLHTTKLTRIARRLCREILRPWHAARHPYLPINSAAIKAECTARLPEASQSPLVLKQAVRKPLEAVLRYLETHPRPPKPDPVKSVSSVLSSLTPAKVAPVINNGSPTILGKRSYEQHNGVDGNMKKRLLMPSRGTYLGLANHGQTRHMGPSRNLLLNGKSYPTKVRLIRGGSLPPVKRRRMNWIDAPDDVFYMATEETRKIRKLLSSSETKRAARRPYKPIALRQSQALPPRPPPPAPVNDEPIVIED | not soluble
13 | MGHHHHHHSHMLKDFLKEQGFEVRENHEVDAVIIGQDKEIEFKKIKNATSAVFLKGAKIIPVNLSKIVKDSDGLYFPGSGSYAYMFKHATNYEGEIPNLGKPSKEFINLALEGLPREKVFLISDDIYTDLMGAKELGIGTIFMTTGKYKQEELKKANFKPDYVFHSLKELMREIKKWLS | not soluble
14 | MGHHHHHHSHMLRVLLSAQTSPARLSGLLLIPPVQPCCLGPSKWGDRPVGGGPSAGPAQGLQRLLEQAKSPGELLRWLGQNPSKVRAHHYSVALRRLGQLLGSRPRPPPVEQVTLQDLSQLIIRNCPSFDIHTIHVCLHLAVLLGGTEVGPALWATELPAPGTAVYALP | not soluble
15 | MGHHHHHHSHMPDHGDWTYEEQFKQLYELDGDPKRKEFLDDLFSFMQKRGTPVNRIPIMAKQVLDLFMLYVLVTEKGGLVEVINKKLWREITKGLNLPTSITSAAFTLRTQYMKYLYPYECEKRGLSNPNELQAAIDSNRREGRR | soluble
16 | MGHHHHHHSHMPPGGHIESGASFSPSAGSDGDKGLKPREEGEAPEAGPCLASQLAPVQWVAPPRLLLRLIFIDLPALLIAPTAESSAEEDEEPHDEGQSSEDQAPIANGLIVIVERVHVPLGAAATVHRQPSHFPR | not soluble
17 | MGHHHHHHSHMRLPSKPYSTLPIFSLGPSALQRGESSMRSEKPSTAHHRPLRSIARFSSKSKSMDKSDEELQFPKELMEDWSTMEVCVDCKKFISEIISSSRRSLVLANKRARLKRKTQSFYMSSPGPSEYCPSERTISEI | not soluble
18 | MGHHHHHHSHMSEFMQRFADLRDRKAYAEIVDALPYVKLMGTSMAEDEQGELRFELPFLQRNVGNTTLPALHGGLIGGFMESAAMIHLMWNRESLEAPKIVDFSLDYLRPGRPQTLFAQCEITKQGKRVAHVLIEAWQDDRSKPVAVARAHFLLTN | soluble
